Measured values published in publication PMC4512625 (2015).
Ends that are not written are not given here.

Experiments:
human SPAK 452-547(end) = human SPAK 452-547(end) (human, UniProt Q9UEW8 452-545); assay: FP
[1] = biological target: human SPAK 452-547 with L491A (human, UniProt Q9UEW8 452-545, L491A); assay: FP

B1: Lumio-Green-labelled RFXV-motif-possessing peptide derived from WNK4 (EP4543) (peptide)
peptide: CCPGCCGGGGSEEGKPQLVGRFQVTSSK
modifications: not fully specified (N-terminus); cysteine pairing not given here; also: Lumio Green fluorophore bound to the N-terminal CCPGCC linker
- Kd (human SPAK 452-547(end)): 0.6 µM
- Kd [1]: 88.2 µM
